PMC4730206, “The solution configurations of inactive and activated DntR have implications for the sliding dimer mechanism of LysR transcription factors” (Scientific Reports, 2016)
Blank lines part the entries; values can stand above or below the compound they belong to.

How the values were obtained:
[1] = biological target: DntR-His6 from Burkholderia sp. (wild type) (Burkholderia sp.) (UniProt Q7WT50); assay: SAXS; static SAXS of apo-DntR pre-incubated with 100 μM sodium salicylate (holo-DntR); repeated as SEC-SAXS with 5 mM salicylate; rigid body modelling of a tetramer
[2] = biological target: DntR-His6 from Burkholderia sp. (wild type) (Burkholderia sp.) (UniProt Q7WT50); assay: crystal structure; apo-DntR crystals, hanging drops at 18 °C, 0.2 M sodium potassium tartrate, 0.1 M Tris-HCl pH 8.0, 5% PEG 6000; space group P6(5)22, two monomers in the asymmetric unit, tetramer from two symmetry-related dimers
[3] = biological target: DntR-His6 from Burkholderia sp. (wild type) (Burkholderia sp.) (UniProt Q7WT50); assay: SAXS; static SAXS without inducer, in 1 M NaCl, 2 mM MgSO4, 1 mM DTT, 17% glycerol, 25 mM NaH2PO4-NaOH pH 8.0; apo-DntR at 3, 1 and 0.5 mg/mL (repeated as SEC-SAXS on Superdex 200), H169T-DntR at 0.7 mg/mL; fits to tetramer models
DntR (DntR-His6) = biological target: T1, DntR (DntR-His6) (Burkholderia sp. DNT, UniProt Q7WT50); assay: Thermofluor thermal stability assay; type: binding; conditions: 100 µM sodium salicylate; inducer; apo-protein reference Tm in the 2nd table, row 4
T1 construct: full-length, C-terminal His6 tag (DntR-His6), recombinant, modelled to H303, homotetramer
T1 sequence (Q7WT50 1-301): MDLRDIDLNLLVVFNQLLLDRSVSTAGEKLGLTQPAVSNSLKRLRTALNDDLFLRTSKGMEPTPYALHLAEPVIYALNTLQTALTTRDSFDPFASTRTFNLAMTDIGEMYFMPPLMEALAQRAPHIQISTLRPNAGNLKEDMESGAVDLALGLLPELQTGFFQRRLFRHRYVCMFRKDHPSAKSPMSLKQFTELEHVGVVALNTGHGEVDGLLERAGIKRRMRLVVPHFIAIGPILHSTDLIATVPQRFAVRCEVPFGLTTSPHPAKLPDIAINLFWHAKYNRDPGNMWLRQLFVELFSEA
Excerpt: Thermofluor thermal stability assay on DntR (DntR-His6)

[4] = biological target: H169T-DntR-His6 (Burkholderia sp.) (UniProt Q7WT50); assay: crystal structure; H169T-DntR crystals, 0.2 M sodium tartrate, 0.2 M potassium thiocyanate, 0.5 mM sodium salicylate, 0.1 M Tris pH 8.5, 20% PEG 8000; thiocyanate bound; space group P6(5)22, dimer in the asymmetric unit, tetramer from two symmetry-related dimers
[5] = biological target: H169T-DntR-His6 (Burkholderia sp.) (UniProt Q7WT50); assay: SAXS; static SAXS without inducer, in 1 M NaCl, 2 mM MgSO4, 1 mM DTT, 17% glycerol, 25 mM NaH2PO4-NaOH pH 8.0; apo-DntR at 3, 1 and 0.5 mg/mL (repeated as SEC-SAXS on Superdex 200), H169T-DntR at 0.7 mg/mL; fits to tetramer models

stoichiometry N [1]: 4 | stoichiometry N [2]: 4 | stoichiometry N [3]: 4
Compound: DntR-His6 from Burkholderia sp. (wild type) (from UniProt Q7WT50 1-301) (natural protein)

Compound: O=C(O)c1ccccc1O [salicylate]
Tm (^oC) (DntR (DntR-His6)): 51 °C

stoichiometry N [4]: 4 | stoichiometry N [5]: 4
Compound: H169T-DntR-His6 (from UniProt Q7WT50 1-301) (natural protein)
